Publication PMC10511499

Target: human dynein complex, wild type (tagged IC2C with the dynein subunits of 293 cells) (told two ways: 'Rat IC2C' (methods), human (results, legend) | human (endogenous in Flp-In T-REx 293 cells)) (UniProt Q14204)
Experiment: TIRF microscopy microtubule recruitment assay; mammalian proteins; dynein or DDB on biotin-microtubules, SRP90 assay buffer with 2 mM AMP-PNP, 10 min; apparent affinity

In the case of “human dynactin p150-CC1 (residues 224-554) (from UniProt Q14203-1 224-554) (domain or fragment)”, the fold greater apparent affinity than Ndel1 is reported as 6 fold.
